Article PMC10134273 (Cancer Medicine, 2023)
“And” between values parts separate entries of the source, which are not always exact repeats. Equal values may be shown once. Read-outs that look alike come from different tables or passages of the source.

Procedure: Secondary endpoints included PK parameters (e.g., maximum observed concentration [C max] and area under the concentration‐time curve [AUC]). Secondary endpoints included objective response rate (ORR), disease control rate (DCR), and duration of response (DOR) as assessed by investigator per RECIST v1.1. Tumor responses were assessed according to RECIST v1.1; computerized tomography scanning or magnetic resonance imaging was performed every 6 weeks in the first 48 weeks, and every 12 weeks thereafter. Secondary endpoints also included safety and tolerability (adverse events [AEs] as defined by the National Cancer Institute‐Common Terminology Criteria for Adverse Events CTCAE v5.0) and exploratory biomarkers (total bile acids, 7‐α‐hydroxy‐4‐cholesten‐3‐one [C4] and circulating FGF19). Safety follow‐up visit was performed within 30 days (±5 days) and 90 days (±7 days) after the last dose of the study treatment.
All patients who received at least one dose of the study treatment in the Phase 1 part of the study were included in the safety and efficacy analyses. Dose escalation and MTD assessment were primarily based on DLTs which occurred within the 28‐day observation period. Descriptive statistics were used for demographics, safety, and efficacy data. The number of patients who experienced DLTs (within and outside of the 28‐day DLT assessment period) was tabulated for each dose level. The sample size of patients required for dose escalation were determined based on the ‘3+3’ design and DLTs observed as the trial progressed.

[1] = EVER4010001 40 mg BID group (N=3)
[2] = EVER4010001 60 mg BID group (N=3)
[3] = EVER4010001 80 mg BID group (N=6)
[4] = EVER4010001 100 mg BID group (N=7)

## pembrolizumab: humanized monoclonal immunoglobulin G4 kappa anti-PD-1 antibody [reference compound]
2 patients with SAEs (40 and 60 mg)
  SAEs related to EVER4010001 or pembrolizumab: none
Any Grade, N=19
  Any pembrolizumab related TEAEs: 18 (94.7%) n (%) and 18 (94.7) n (%)
  pembrolizumab related TEAEs: Abdominal pain: 2 (10.5) n (%)
  pembrolizumab related TEAEs: Anemia: 4 (21.1) n (%)
  pembrolizumab related TEAEs: Aspartate aminotransferase increase: 10 [52.6%] n (%) and 10 (52.6) n (%)
  pembrolizumab related TEAEs: Blood alkaline phosphatase increased: 4 (21.1) n (%)
  pembrolizumab related TEAEs: Blood and lymphatic system disorders: 4 (21.1) n (%)
  pembrolizumab related TEAEs: Blood bilirubin increased: 4 (21.1) n (%)
  pembrolizumab related TEAEs: Diarrhea: 11 [57.9%] n (%) and 11 (57.9) n (%)
  pembrolizumab related TEAEs: Endocrine disorders: 3 (15.8) n (%)
  pembrolizumab related TEAEs: Gamma-glutamyl transferase increased: 2 (10.5) n (%)
  pembrolizumab related TEAEs: Gastrointestinal disorders: 11 (57.9) n (%)
  pembrolizumab related TEAEs: Hyperphosphatemia: 3 (15.8) n (%)
  pembrolizumab related TEAEs: Hypoalbuminemia: 3 (15.8) n (%)
  pembrolizumab related TEAEs: Hypothyroidism: 3 (15.8) n (%)
  pembrolizumab related TEAEs: Investigations: 14 (73.7) n (%)
  pembrolizumab related TEAEs: Metabolism and nutrition disorders: 6 (31.6) n (%)
  pembrolizumab related TEAEs: Proteinuria: 4 (21.1) n (%)
  pembrolizumab related TEAEs: Renal and urinary disorder: 4 (21.1) n (%)
  pembrolizumab related TEAEs: Thyroiditis: 2 (10.5) n (%)
[1]
  TEAEs resulting in temporary interruption of pembrolizumab: 1 (33.3) n (%)
  Temporary interruption of pembrolizumab: Blood bilirubin increased: 0 n (%)
  Temporary interruption of pembrolizumab: Endocrine disorders: 1 (33.3) n (%)
  Temporary interruption of pembrolizumab: Investigations: 0 n (%)
  Temporary interruption of pembrolizumab: Thyroiditis: 1 (33.3) n (%)
[2]
  TEAEs resulting in temporary interruption of pembrolizumab: 0 n (%)
  Temporary interruption of pembrolizumab: Blood bilirubin increased: 0 n (%)
  Temporary interruption of pembrolizumab: Endocrine disorders: 0 n (%)
  Temporary interruption of pembrolizumab: Investigations: 0 n (%)
  Temporary interruption of pembrolizumab: Thyroiditis: 0 n (%)
[3]
  TEAEs resulting in temporary interruption of pembrolizumab: 1 (16.7) n (%)
  Temporary interruption of pembrolizumab: Blood bilirubin increased: 1 (16.7) n (%)
  Temporary interruption of pembrolizumab: Endocrine disorders: 0 n (%)
  Temporary interruption of pembrolizumab: Investigations: 1 (16.7) n (%)
  Temporary interruption of pembrolizumab: Thyroiditis: 0 n (%)
[4]
  TEAEs resulting in temporary interruption of pembrolizumab: 1 (14.3) n (%)
  Temporary interruption of pembrolizumab: Blood bilirubin increased: 0 n (%)
  Temporary interruption of pembrolizumab: Endocrine disorders: 0 n (%)
  Temporary interruption of pembrolizumab: Investigations: 1 (14.3) n (%)
  Temporary interruption of pembrolizumab: Thyroiditis: 0 n (%)
Grade ≥3, N=19
  pembrolizumab related TEAEs: Abdominal pain: 0 n (%)
  pembrolizumab related TEAEs: Anemia: 0 n (%)
  pembrolizumab related TEAEs: Aspartate aminotransferase increase: 2 (10.5) n (%)
  pembrolizumab related TEAEs: Blood alkaline phosphatase increased: 0 n (%)
  pembrolizumab related TEAEs: Blood and lymphatic system disorders: 0 n (%)
  pembrolizumab related TEAEs: Blood bilirubin increased: 0 n (%)
  pembrolizumab related TEAEs: Diarrhea: 1 (5.3) n (%)
  pembrolizumab related TEAEs: Endocrine disorders: 0 n (%)
  pembrolizumab related TEAEs: Gamma-glutamyl transferase increased: 0 n (%)
  pembrolizumab related TEAEs: Gastrointestinal disorders: 1 (5.3) n (%)
  pembrolizumab related TEAEs: Hyperphosphatemia: 0 n (%)
  pembrolizumab related TEAEs: Hypoalbuminemia: 0 n (%)
  pembrolizumab related TEAEs: Hypothyroidism: 0 n (%)
  pembrolizumab related TEAEs: Investigations: 2 (10.5) n (%)
  pembrolizumab related TEAEs: Metabolism and nutrition disorders: 0 n (%)
  pembrolizumab related TEAEs: Proteinuria: 0 n (%)
  pembrolizumab related TEAEs: Renal and urinary disorder: 0 n (%)
  pembrolizumab related TEAEs: Thyroiditis: 0 n (%)
Total (N=19)
  TEAEs resulting in temporary interruption of pembrolizumab: 3 [15.8%] n (%) and 3 (15.8) n (%)
  Temporary interruption of pembrolizumab: Blood bilirubin increased: 1 (5.3%) n (%) and 1 (5.3) n (%)
  Temporary interruption of pembrolizumab: Endocrine disorders: 1 (5.3) n (%)
  Temporary interruption of pembrolizumab: Investigations: 2 (10.5) n (%)
  Temporary interruption of pembrolizumab: Thyroiditis: 1 (5.3%) n (%) and 1 (5.3) n (%)
